Measurements published in patent US6509165.

Target: RT1.D (rat MHC class II molecule) (rat)
Assay: cell-based or functional assay

inhibition of proliferation of PI-specific T cells to 20 ug/ml PI peptide: 22 to 25%
Substance: Ox-17 (anti-RT1.D antibody)
